In patent US20110262445A1 (CEPHALON AUSTRALIA, published 2011):
Read-outs that look alike come from different tables or passages of the source.

T1: human IL-12 (human, UniProt P29460 23-328; P29459 23-219)
T1 construct: Recombinant (Peprotech); FLAG-tagged IL-12 in the flow cytometry assays, biotinylated in the IL-12Rβ2 assay; also called hIL-12
T1 sequence 1: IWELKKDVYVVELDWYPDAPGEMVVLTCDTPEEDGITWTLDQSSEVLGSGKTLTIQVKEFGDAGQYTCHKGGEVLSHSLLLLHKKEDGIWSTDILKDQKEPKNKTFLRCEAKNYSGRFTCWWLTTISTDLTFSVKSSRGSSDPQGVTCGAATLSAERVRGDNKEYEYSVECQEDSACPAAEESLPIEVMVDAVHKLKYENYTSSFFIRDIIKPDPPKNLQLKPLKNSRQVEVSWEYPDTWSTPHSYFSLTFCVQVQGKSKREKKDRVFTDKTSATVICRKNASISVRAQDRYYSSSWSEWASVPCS
T1 sequence 2: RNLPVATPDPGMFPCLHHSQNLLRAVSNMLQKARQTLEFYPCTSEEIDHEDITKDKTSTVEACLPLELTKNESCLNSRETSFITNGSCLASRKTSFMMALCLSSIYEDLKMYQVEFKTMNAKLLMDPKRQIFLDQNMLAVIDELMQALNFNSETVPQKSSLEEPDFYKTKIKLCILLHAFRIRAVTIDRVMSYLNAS

T2: human IL-23 (human, UniProt P29460 23-328; Q9NPF7 20-189)
T2 construct: Recombinant (Ebioscience); HIS-tagged in flow cytometry, biotinylated in some assays; also called hIL-23; rhIL-23
T2 sequence 1: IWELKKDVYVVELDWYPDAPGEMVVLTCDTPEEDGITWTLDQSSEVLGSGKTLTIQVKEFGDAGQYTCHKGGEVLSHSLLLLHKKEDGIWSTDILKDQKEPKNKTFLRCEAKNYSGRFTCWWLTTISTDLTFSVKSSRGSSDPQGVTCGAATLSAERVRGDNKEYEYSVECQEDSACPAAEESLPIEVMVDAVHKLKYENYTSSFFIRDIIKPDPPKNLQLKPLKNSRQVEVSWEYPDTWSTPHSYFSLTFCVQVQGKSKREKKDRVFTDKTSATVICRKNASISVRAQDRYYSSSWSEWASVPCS
T2 sequence 2: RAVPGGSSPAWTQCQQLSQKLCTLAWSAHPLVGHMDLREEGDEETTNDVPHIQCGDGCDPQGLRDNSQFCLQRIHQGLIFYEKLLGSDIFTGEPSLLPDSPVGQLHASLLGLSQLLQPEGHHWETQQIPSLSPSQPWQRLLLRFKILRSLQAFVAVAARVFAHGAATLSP


Key:
human IL-12 [1] = biological target: T1, human IL-12; experiment: ELISA, coated IL-12
Summary of the method: (§1)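 Binding values are absorbance readings. After cytokine (1 μg/mL, carbonate buffer pH 9.6) was coated onto Maxisorp plates overnight at 4° C and the plates were blocked with 1% BSA in PBS, antibody titrations were bound for 1 hour at 25° C and detected with HRP-linked goat anti-human IgG or anti-murine immunoglobulin (1:2000). Color from TMB, stopped with 1M HCl, was read at 450 nm with 620 nm as reference.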

human IL-23 [2] = biological target: T2, human IL-23; experiment: ELISA, coated IL-23
Summary of the method: as §1

human IL-23 [3] = biological target: T2, human IL-23; experiment: ELISA, coated IL-23; remark: listed apart in the source
Summary of the method: as §1

human IL-12 [4] = biological target: T1, human IL-12; experiment: ELISA, coated IL-12; remark: listed apart in the source
Summary of the method: as §1

| Binder | binding result (human IL-12 [1]) | binding result (human IL-23 [2]) | binding result (human IL-23 [3]) | binding result (human IL-12 [4]) |
| --- | --- | --- | --- | --- |
| Antibody 60 (antibody, human IgG1, kappa, V domains shown) VH: EVQLVQSGAEVKKPGATVKISCKASGYTFSDYYLHWVRQRPEKGLEWMGWIDPENGDTEYAPKFQGKVTITADTSTDTGYLELSSLRSEDTAVYYCAANKELRYFDVWGQGTLVTVSS VL: DIQMTQSPSSVSASVGDRVTITCRASQSISINLHWYQQKPGKAPKLLIKFASQSISGVPSRFSGSGSGTDFSLTINSLQPEDFATYYCQQSNSFPLTFGGGTKVEIKR | binds | binds |  |  |
| Antibody 131 (antibody, human IgG1, kappa, V domains shown) VH: EVQLVQSGAEVKKPGATVKISCKASGYTFSDYYLHWVRQAPEKGLEWMGWIDPENGDTEYAPKFQGRVTITADTSTDTGYLELSSLRSEDTAVYYCAANKELRYFDVWGQGTLVTVSS VL: DIQMTQSPSSVSASVGDRVTITCRASQSISINLHWYQQKSGKAPKLLIYFASQSISGVPSRFSGSGSGTDFSLTINSLQPEDFATYYCQQSNSFPLTFGGGTKVEIKR |  |  | binds | binds |
| Antibody 141 (antibody, human IgG1, kappa) heavy chain: not shown light chain: DIQMTQSPSSVSASPGDRVTITCRASQSISINLHWYQQKPGKAPKLLIYFASQSISGVPSRFSGSGSGTDFSLTINSLQPEDFARYYCQQSNSFPLTFGGGTKVEIKRTVAAPSVFIFPPSDEQLKSGTASVVCLLNNFYPREAKVQWKVDNALQSGNSQESVTEQDSKDSTYSLSSTLTLSKADYEKHKVYACEVTHQGLSSPVTKSFNRGEC |  |  | binds | binds |
| Antibody 132 (antibody, human IgG1, kappa, V domains shown) VH: EVQLVQSGAEVKKPGATVKISCKASGYTFSDYYLHWVRQAPEKGLEWMGWIDPENGDTEYAPKFQGRVTITADTSTDTGYLELSSLRSEDTAVYYCAANKELRYFDVWGQGTLVTVSS VL: DIQMTQSPSSVSASVGDRVTITCRASQSISINLHWYQQKPHKAPKLLIYFASQSISGVPSRFSGSGSGTDFSLTINSLQPEDFATYYCQQSNSFPLTFGGGTKVEIKR |  |  | binds | binds |
| Antibody 143 (antibody, human IgG1, kappa, V domains shown) VH: EVQLVQSGAEVKKPGATVKISCKASGYTFSDYYLHWVRQAPEKGLEWMGWIDPENGDTEYAPKFQGRVTITADTSTDTGYLELSSLRSEDTAVYYCAANKELRYFDVWGQGTLVTVSS VL: DIQMTQSPSSVSASVGDRVTITCRASQSISINLHWYQQKPHKAPKLLIYFASQSISGVPSRFSGSGSGTDFSLTINSLQPEDFARYYCQQSNSFPLTFGGGTKVEIKR |  |  | binds | binds |
| Antibody 142 (antibody, human IgG1, kappa, V domains shown) VH: EVQLVQSGAEVKKPGATVKISCKASGYTFSDYYLHWVRQAPEKGLEWMGWIDPENGDTEYAPKFQGRVTITADTSTDTGYLELSSLRSEDTAVYYCAANKELRYFDVWGQGTLVTVSS VL: DIQMTQSPSSVSASVGDRVTITCRASQSISINLHWYQQKSGKAPKLLIYFASQSISGVPSRFSGSGSGTDFSLTINSLQPEDFARYYCQQSNSFPLTFGGGTKVEIKR |  |  | binds | binds |
| Antibody 146 (antibody, human IgG1, kappa, V domains shown) VH: EVQLVQSGAEVKKPGATVKISCKASGYTFSDYYLHWVRQAPEKGLEWMGWIDPENGDTEYAPKFQGRVTITADTSTDTGYLELSSLRSEDTAVYYCAANKELRYFDVWGQGTLVTVSS VL: DIQMTQSPSSVSASVGDRVTITCRASQSISINLHWYQQKPGKAPKLLIYFASQSISGIPSRFSGSGSGTDFSLTINSLQPEDFARYYCQQSNSFPLTFGGGTKVEIKR |  |  | binds | binds |
| Antibody 133 (antibody, human IgG1, kappa, V domains shown) VH: EVQLVQSGAEVKKPGATVKISCKASGYTFSDYYLHWVRQAPEKGLEWMGWIDPENGDTEYAPKFQGRVTITADTSTDTGYLELSSLRSEDTAVYYCAANKELRYFDVWGQGTLVTVSS VL: DIQMTQSPSSVSASVGDRVTITCRASQSISINLHWYQQKPGEAPKLLIYFASQSISGVPSRFSGSGSGTDFSLTINSLQPEDFATYYCQQSNSFPLTFGGGTKVEIKR |  |  | binds | binds |
| Antibody 134 (antibody, human IgG1, kappa, V domains shown) VH: EVQLVQSGAEVKKPGATVKISCKASGYTFSDYYLHWVRQAPEKGLEWMGWIDPENGDTEYAPKFQGRVTITADTSTDTGYLELSSLRSEDTAVYYCAANKELRYFDVWGQGTLVTVSS VL: DIQMTQSPSSVSASVGDRVTITCRASQSISINLHWYQQKPGKSPKLLIYFASQSISGVPSRFSGSGSGTDFSLTINSLQPEDFATYYCQQSNSFPLTFGGGTKVEIKR |  |  | binds | binds |
| Antibody 144 (antibody, human IgG1, kappa, V domains shown) VH: EVQLVQSGAEVKKPGATVKISCKASGYTFSDYYLHWVRQAPEKGLEWMGWIDPENGDTEYAPKFQGRVTITADTSTDTGYLELSSLRSEDTAVYYCAANKELRYFDVWGQGTLVTVSS VL: DIQMTQSPSSVSASVGDRVTITCRASQSISINLHWYQQKPGEAPKLLIYFASQSISGVPSRFSGSGSGTDFSLTINSLQPEDFARYYCQQSNSFPLTFGGGTKVEIKR |  |  | binds | binds |
| Antibody 61 (antibody, human IgG1, kappa, V domains shown) VH: EVQLVQSGAEVKKPGATVKISCKASGYTFSDYYLHWVRQAPGKGLEWMGWIDPENGDTEYAPKFQGRVTITADTSTDTGYLELSSLRSEDTAVYYCAANKELRYFDVWGQGTLVTVSS VL: DIQMTQSPSSVSASVGDRVTITCRASQSISINLHWYQQKPGKAPKLLIYFASQSISGVPSRFSGYGSGTDFSLTINSLQPEDFATYYCQQSNSFPLTFGGGTKVEIKR | binds | binds |  |  |
| Antibody 148 (antibody, human IgG1, kappa, V domains shown) VH: EVQLVQSGAEVKKPGATVKISCKASGYTFSDYYLHWVRQAPEKGLEWMGWIDPENGDTEYAPKFQGRVTITADTSTDTGYLELSSLRSEDTAVYYCAANKELRYFDVWGQGTLVTVSS VL: DIQMTQSPSSVSASVGDRVTITCRASQSISINLHWYQQKPGKAPKLLIYFASQSISGVPSRFSGSGSGTDFSLTINSLQPEDFARYFCQQSNSFPLTFGGGTKVEIKR |  |  | binds | binds |

The next lines start with the values.

| binding result (human IL-12 [1]) | binding result (human IL-23 [2]) | binding result (human IL-23 [3]) | binding result (human IL-12 [4]) | Binder |
| --- | --- | --- | --- | --- |
|  |  | binds | binds | Antibody 140 (antibody, human IgG1, kappa) heavy: not shown light: DIQMTQSPSSVSATVGDRVTITCRASQSISINLHWYQQKPGKAPKLLIYFASQSISGVPSRFSGSGSGTDFSLTINSLQPEDFARYYCQQSNSFPLTFGGGTKVEIKRTVAAPSVFIFPPSDEQLKSGTASVVCLLNNFYPREAKVQWKVDNALQSGNSQESVTEQDSKDSTYSLSSTLTLSKADYEKHKVYACEVTHQGLSSPVTKSFNRGEC |
|  |  | binds | binds | Antibody 135 (antibody, human IgG1, kappa, V domains shown) VH: EVQLVQSGAEVKKPGATVKISCKASGYTFSDYYLHWVRQAPEKGLEWMGWIDPENGDTEYAPKFQGRVTITADTSTDTGYLELSSLRSEDTAVYYCAANKELRYFDVWGQGTLVTVSS VL: DIQMTQSPSSVSASVGDRVTITCRASQSISINLHWYQQKPGKAPKLLIYFASQSISGIPSRFSGSGSGTDFSLTINSLQPEDFATYYCQQSNSFPLTFGGGTKVEIKR |
|  |  | binds | binds | Antibody 145 (antibody, human IgG1, kappa, V domains shown) VH: EVQLVQSGAEVKKPGATVKISCKASGYTFSDYYLHWVRQAPEKGLEWMGWIDPENGDTEYAPKFQGRVTITADTSTDTGYLELSSLRSEDTAVYYCAANKELRYFDVWGQGTLVTVSS VL: DIQMTQSPSSVSASVGDRVTITCRASQSISINLHWYQQKPGKSPKLLIYFASQSISGVPSRFSGSGSGTDFSLTINSLQPEDFARYYCQQSNSFPLTFGGGTKVEIKR |
|  |  | binds | binds | Antibody 147 (antibody, human IgG1, kappa, V domains shown) VH: EVQLVQSGAEVKKPGATVKISCKASGYTFSDYYLHWVRQAPEKGLEWMGWIDPENGDTEYAPKFQGRVTITADTSTDTGYLELSSLRSEDTAVYYCAANKELRYFDVWGQGTLVTVSS VL: DIQMTQSPSSVSASVGDRVTITCRASQSISINLHWYQQKPGKAPKLLIYFASQSISGVPSRFSGSGSGTDFSLTINSLQTEDFARYYCQQSNSFPLTFGGGTKVEIKR |
|  |  | binds | binds | Antibody 137 (antibody, human IgG1, kappa, V domains shown) VH: EVQLVQSGAEVKKPGATVKISCKASGYTFSDYYLHWVRQAPEKGLEWMGWIDPENGDTEYAPKFQGRVTITADTSTDTGYLELSSLRSEDTAVYYCAANKELRYFDVWGQGTLVTVSS VL: DIQMTQSPSSVSASVGDRVTITCRASQSISINLHWYQQKPGKAPKLLIYFASQSISGVPSRFSGSGSGTDFSLTINSLQPEDFATYFCQQSNSFPLTFGGGTKVEIKR |
